Values quoted from earlier work in US20110015587A1, “Irrigation Device and Method Using Same” (priority 2009, published 2011).

Tested on: fibroblasts
Conditions: in six hours; through motility of fibroblasts

B1: Lactoferrin (protein, UniProt P02788 20-710, looked up)
Lactotransferrin: GRRRSVQWCAVSQPEATKCFQWQRNMRKVRGPPVSCIKRDSPIQCIQAIAENRADAVTLDGGFIYEAGLAPYKLRPVAAEVYGTERQPRTHYYAVAVVKKGGSFQLNELQGLKSCHTGLRRTAGWNVPIGTLRPFLNWTGPPEPIEAAVARFFSASCVPGADKGQFPNLCRLCAGTGENKCAFSSQEPYFSYSGAFKCLRDGAGDVAFIRESTVFEDLSDEAERDEYELLCPDNTRKPVDKFKDCHLARVPSHAVVARSVNGKEDAIWNLLRQAQEKFGKDKSPKFQLFGSPSGQKDLLFKDSAIGFSRVPPRIDSGLYLGSGYFTAIQNLRKSEEEVAARRARVVWCAVGEQELRKCNQWSGLSEGSVTCSSASTTEDCIALVLKGEADAMSLDGGYVYTAGKCGLVPVLAENYKSQQSSDPDPNCVDRPVEGYLAVAVVRRSDTSLTWNSVKGKKSCHTAVDRTAGWNIPMGLLFNQTGSCKFDEYFSQSCAPGSDPRSNLCALCIGDEQGENKCVPNSNERYYGYTGAFRCLAENAGDVAFVKDVTVLQNTDGNNNEAWAKDLKLADFALLCLDGKRKPVTEARSCHLAMAPNHAVVSRMDKVERLKQVLLHQQAKFGRNGSDCPDKFCLFQSETKNLLFNDNTECLARLHGKTTYEKYLGPQYVAGITNLKKCSTSPLLEACEFLRK
In the case of B1, the “reduction of collagen gel surface area” value is listed as 50%.
